Assay results from patent US20220363758A1 (SORRENTO THERAPEUTICS, published 2022).
Changes are numbered by the printed parent chain. Names and notes keep the numbering of the source. Read-outs that look alike come from different tables or passages of the source. Each block holds one binder with its values, some of them ahead of it.

Tests used:
[1] = molecular target: T1, CD3 antigen expressed on cells (human CD3 epsilon) (human, UniProt P07766 23-207); assay: flow cytometry on CD38(-) primary human T cells, mouse anti-human Fc-APC detection, GeoMean RL-H of singlets
T1 construct: also called cell surface CD3 antigen; CD3 on T cells

[2] = molecular target: T2, Recombinant human CD38-his tag (human, UniProt P28907 43-300); assay: SPR (Biacore T200), antibody as captured ligand, CD38 as sample, 1:1 binding model
T2 construct: also called recombinant CD38 antigen; CD38 antigen; not shown: his tag

[3] = molecular target: T1, CD3 antigen expressed on cells (human …); assay: flow cytometry on CD3-bearing cells (cell type not given)
[4] = molecular target: T1, CD3 antigen expressed on cells (human …); assay: flow cytometry on CD38(-) primary human T cells, mouse anti-human Fc-APC detection, GeoMean RL-H of singlets; remark: listed apart in the source

B1: CD38 A2-3H10m1 assembled with CD3-scFv tsm #5 (bispecific antibody, human IgG1, lambda, L234A L235A)
chain: EVQLVQSGAEVKKPGASVKVSCKASGYTFISYTMHWVRQAPGQGLEWMGYINPRSGYTHYNQKLKDRATLTADKSASTAYMELSSLRSEDTAVYYCARSAYYDYDGFAYWGQGTLVTVSSGGGGSGGGGSGGGGSGGGGSDIQMTQSPSSLSASVGDRVTITCSASSSVSYMNWYQQKPGKAPKRLIYDTSKLASGVPSRFSGSGSGTDFTLTISSLQPEDFATYYCQQWSSNPPTFGGGTKVEIKGGSGGDKTHTCPPCPAPEAAGGPSVFLFPPKPKDTLMISRTPEVTCVVVDVSHEDPEVKFNWYVDGVEVHNAKTKPREEQYNSTYRVVSVLTVLHQDWLNGKEYKCKVSNKALPAPIEKTISKAKGQPREPQVYTLPPSREEMTKNQVSLSCAVKGFYPSDIAVEWESNGQPENNYKTTPPVLDSDGSFFLVSKLTVDKSRWQQGNVFSCSVMHEALHNHYTQKSLSLSPGK
heavy: QVQLVESGGGLVKPGGSLRLSCAASGFTFSDDYMSWIRQAPGKGLEWVASVSNGRPTTYYADSVRGRFTISRDNAKNSLYLQMNSLRAEDTAVYYCAREGWSGEFTDWGQGTLVTVSSASTKGPSVFPLAPSSKSTSGGTAALGCLVKDYFPEPVTVSWNSGALTSGVHTFPAVLQSSGLYSLSSVVTVPSSSLGTQTYICNVNHKPSNTKVDKRVEPKSCDKTHTCPPCPAPEAAGGPSVFLFPPKPKDTLMISRTPEVTCVVVDVSHEDPEVKFNWYVDGVEVHNAKTKPREEQYNSTYRVVSVLTVLHQDWLNGKEYKCKVSNKALPAPIEKTISKAKGQPREPQVYTLPPSREEMTKNQVSLWCLVKGFYPSDIAVEWESNGQPENNYKTTPPVLDSDGSFFLYSKLTVDKSRWQQGNVFSCSVMHEALHNHYTQKSLSLSPGK
light: not shown
EC50 (read off the curve) [1]: ~0.1 ng/mL

B2: CD38 D8-3A1/CD3 (M48I/K67R) bispecific antibody (bispecific antibody, human IgG1, lambda, L234A L235A)
chain: B1 chain with M48I
heavy: QVQLVESGGGVVQPGGSLRLSCAASGFNVRTKYVHWVRQAPGKGLEWVSGIYSDPYTSYAYSDSVKGRFTISRDMSKNTVYLQMNRLRAEDTAVYYCARETNTGFSNSWYLDFWGQGTLVTVSSASTKGPSVFPLAPSSKSTSGGTAALGCLVKDYFPEPVTVSWNSGALTSGVHTFPAVLQSSGLYSLSSVVTVPSSSLGTQTYICNVNHKPSNTKVDKRVEPKSCDKTHTCPPCPAPEAAGGPSVFLFPPKPKDTLMISRTPEVTCVVVDVSHEDPEVKFNWYVDGVEVHNAKTKPREEQYNSTYRVVSVLTVLHQDWLNGKEYKCKVSNKALPAPIEKTISKAKGQPREPQVYTLPPSREEMTKNQVSLWCLVKGFYPSDIAVEWESNGQPENNYKTTPPVLDSDGSFFLYSKLTVDKSRWQQGNVFSCSVMHEALHNHYTQKSLSLSPGK
light: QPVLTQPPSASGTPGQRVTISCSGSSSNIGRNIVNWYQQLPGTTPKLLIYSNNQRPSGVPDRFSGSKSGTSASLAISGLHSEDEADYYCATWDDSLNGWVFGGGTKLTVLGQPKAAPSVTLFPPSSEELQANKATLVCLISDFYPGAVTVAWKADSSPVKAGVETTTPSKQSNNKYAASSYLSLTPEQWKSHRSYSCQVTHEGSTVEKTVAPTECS
Kd [2]: 4.95 nM
koff [2]: 0.00393 s⁻¹
kon [2]: 794000 M⁻¹ s⁻¹

B3: CD3-tsm#7 (WT) scFv-Fc fusion (Fc fusion)
chain: B1 chain with R67K
notes: Wild type HuM291 VH; As for CD3-tsm#1: scFv g1 Fc fusion chain; also called wild type Hum291 scFv
EC50 [3]: 0.2 µg/mL

B5: CD38 A2-3H10m1 assembled with CD3-scFv tsm #6 (bispecific antibody, human IgG1, lambda, L234A L235A)
chain: B1 chain with I30V, R67K
heavy: B1 heavy
light: not shown
EC50 (read off the curve) [1]: ~0.1 ng/mL

B6: CD3-tsm#6 (I30V) scFv-Fc fusion (Fc fusion)
chain: B1 chain with I30V, R67K
notes: As for CD3-tsm#1: scFv g1 Fc fusion chain; also called CD3-tsm#6 ( (BOV))
EC50 [3]: 0.1 µg/mL

B7: CD3-tsm#3 (M48I) scFv-Fc fusion (Fc fusion)
chain: B1 chain with M48I, R67K
notes: As for CD3-tsm#1: scFv g1 Fc fusion chain
EC50 [3]: 0.2 µg/mL

B8: CD3-tsm#5 (K67R) scFv-Fc fusion (Fc fusion)
chain: B1 chain
notes: as for B7
EC50 [3]: 0.1 µg/mL

B12: CD3-tsm#1 (M48I/K67R) scFv-Fc fusion (Fc fusion)
chain: B1 chain with M48I
notes: also called CD3 scFv-Fc fusion, VH variant M48I/K67R, tsm #1
EC50 [3]: 0.2 µg/mL

B13: CD38 A2-3H10m1 assembled with CD3-scFv tsm #3 (bispecific antibody, human IgG1, lambda, L234A L235A)
chain: B1 chain with M48I, R67K
heavy: B1 heavy
light: not shown
EC50 (read off the curve) [4]: ~0.2 ng/mL

B15: CD38 A2-3H10m1 assembled with CD3-scFv tsm #7 (bispecific antibody, human IgG1, lambda, L234A L235A)
chain: B1 chain with R67K
heavy: B1 heavy
light: not shown
notes: tsm #7 carries the wild type HuM291 VH
EC50 (read off the curve) [1]: ~0.2 ng/mL

B16: CD3-tsm#4 (I30V/M48I/K67R) scFv-Fc fusion (Fc fusion)
chain: B1 chain with I30V, M48I
notes: as for B7
EC50 [3]: 0.1 µg/mL

B17: CD38 A2-3H10m1 assembled with CD3-scFv tsm #4 (bispecific antibody, human IgG1, lambda, L234A L235A)
chain: B1 chain with I30V, M48I
heavy: B1 heavy
light: not shown
EC50 (read off the curve) [4]: ~0.1 ng/mL

B18: CD3-tsm#2 (I30V/K67R) scFv-Fc fusion (Fc fusion)
chain: B1 chain with I30V
notes: as for B7
EC50 [3]: 1.5 µg/mL

B19: CD38 A2-3H10m1 assembled with CD3-scFv tsm #2 (bispecific antibody, human IgG1, lambda, L234A L235A)
chain: B1 chain with I30V
heavy: B1 heavy
light: not shown
EC50 (read off the curve) [4]: ~1 ng/mL

Continued, values first:

Kd [2]: 20.3 nM
koff [2]: 0.011 s⁻¹
kon [2]: 541000 M⁻¹ s⁻¹
B4: CD38 D8/CD3 (M48I/K67R) bispecific antibody (bispecific antibody, human IgG1, lambda, L234A L235A)
chain: B1 chain with M48I
heavy: B2 heavy with N28I, R30S, K32N
light: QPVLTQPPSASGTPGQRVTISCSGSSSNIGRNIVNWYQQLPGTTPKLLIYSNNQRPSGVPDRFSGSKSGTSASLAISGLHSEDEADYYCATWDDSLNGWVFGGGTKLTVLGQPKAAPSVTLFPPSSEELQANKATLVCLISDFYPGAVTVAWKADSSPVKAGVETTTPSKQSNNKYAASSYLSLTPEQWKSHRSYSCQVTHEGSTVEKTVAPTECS

Kd [2]: 6.55 nM
koff [2]: 0.00565 s⁻¹
kon [2]: 862000 M⁻¹ s⁻¹
B9: CD38 D8-3E1/CD3 (M48I/K67R) bispecific antibody (bispecific antibody, human IgG1, lambda, L234A L235A)
chain: B1 chain with M48I
heavy: B2 heavy with G26K, F27L, R30S, T31P
light: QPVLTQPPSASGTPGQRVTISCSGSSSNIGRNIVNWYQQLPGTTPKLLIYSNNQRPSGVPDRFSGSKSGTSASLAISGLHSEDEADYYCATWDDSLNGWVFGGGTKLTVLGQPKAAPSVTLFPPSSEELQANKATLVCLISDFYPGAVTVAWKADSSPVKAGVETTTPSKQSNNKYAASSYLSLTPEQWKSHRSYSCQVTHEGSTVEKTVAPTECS
notes: also called CD38 D8-3E1/CD3 (M481/K67R)

Kd [2]: 12.3 nM
koff [2]: 0.00637 s⁻¹
kon [2]: 517000 M⁻¹ s⁻¹
B10: CD38 A2/CD3 (M48I/K67R) bispecific antibody (bispecific antibody, human IgG1, lambda, L234A L235A)
chain: B1 chain with M48I
heavy: B1 heavy with G100D, S102G
light: not shown

Kd [2]: 1.51 nM
koff [2]: 0.00203 s⁻¹
kon [2]: 1.35e+06 M⁻¹ s⁻¹
EC50 (read off the curve) [4]: ~0.2 ng/mL
B11: CD38A2-3H10m1/CD3tsm #1-scFvg1LALA-knob-in-hole bispecific antibody (bispecific antibody, human IgG1, lambda, L234A L235A)
chain: B1 chain with M48I
heavy: B1 heavy
light: not shown
notes: Three chains: anti-CD3 scFv-Fc (hole, LALA), anti-CD38 heavy chain (knob, LALA) and anti-CD38 lambda light chain; also called CD38 A2-3H10m1 assembled with CD3-scFv tsm #1; CD38A2-3H10m1/CD3tsm #1 IgG-scFv

Kd [2]: 4.52 nM
koff [2]: 0.00388 s⁻¹
kon [2]: 859000 M⁻¹ s⁻¹
B14: CD38 D8-1B5/CD3 (M48I/K67R) bispecific antibody (bispecific antibody, human IgG1, lambda, L234A L235A)
chain: B1 chain with M48I
heavy: B2 heavy with F27L, V29A, K32N
light: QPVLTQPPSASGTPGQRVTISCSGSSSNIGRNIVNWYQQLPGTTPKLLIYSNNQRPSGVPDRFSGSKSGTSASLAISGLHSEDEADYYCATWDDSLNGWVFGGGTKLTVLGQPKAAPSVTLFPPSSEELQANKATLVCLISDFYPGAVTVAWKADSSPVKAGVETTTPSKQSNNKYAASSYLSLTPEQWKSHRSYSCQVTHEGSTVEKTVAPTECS

Kd [2]: 9.14 nM
koff [2]: 0.00372 s⁻¹
kon [2]: 406000 M⁻¹ s⁻¹
B20: CD38 D8-3A1/CD3 mAb (antibody, V domains shown)
VH: QVQLVESGGGVVQPGGSLRLSCAASGFNVRTKYVHWVRQAPGKGLEWVSGIYSDPYTSYAYSDSVKGRFTISRDMSKNTVYLQMNRLRAEDTAVYYCARETNTGFSNSWYLDFWGQGTLVTVSS
VL: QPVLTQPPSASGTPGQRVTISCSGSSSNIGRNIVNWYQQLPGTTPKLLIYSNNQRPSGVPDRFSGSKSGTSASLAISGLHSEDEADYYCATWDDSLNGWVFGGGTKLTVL
notes: stands beside the row 'CD38 D8-3A1/CD3 IgG-scFv', so it is another molecule than m27

EC50 (read off the curve) [4]: ~0.02 ng/mL
EC50 (read off the curve) [1]: ~0.008 ng/mL
B21: Hu291 mAb (antibody, V domains shown)
VH: EVQLVQSGAEVKKPGASVKVSCKASGYTFISYTMHWVRQAPGQGLEWMGYINPRSGYTHYNQKLKDKATLTADKSASTAYMELSSLRSEDTAVYYCARSAYYDYDGFAYWGQGTLVTVSS
VL: DIQMTQSPSSLSASVGDRVTITCSASSSVSYMNWYQQKPGKAPKRLIYDTSKLASGVPSRFSGSGSGTDFTLTISSLQPEDFATYYCQQWSSNPPTFGGGTKVEIK
notes: also called Hum291 anti-CD3 mAb; HuM291 mAb
